Assay results from publication PMC7808939.

Assays:
Fbxl8 [1] = molecular target: Fbxl8 (UniProt Q8CIG9); assay: co-immunoprecipitation; details: reference: wild type cyclin D3; sites T283
Fbxl8 [2] = molecular target: Fbxl8 (UniProt Q8CIG9); assay: anti-HA co-IP, blot for cyclin D3; details: reference: wild type Flag-cyclin D3; sites T283

| binding against the reference (Fbxl8 [1]) | binding against the reference (Fbxl8 [2]) | Substance |
| --- | --- | --- |
| lost | – | cyclin D3 (from UniProt P30282) T283A |
| – | weaker | cyclin D3 (from UniProt P30282) Flag-cyclin D3 T283A |
